US20220380436A1 (BOARD OF TRUSTEES OF THE UNIVERSITY OF ILLINOIS, published 2022)

Target: T1, human PDGFRβ isoform 1, myc-tagged, expressed on Expi293F cells (human, UniProt P09619 33-1106)
T1 construct: not shown: N-terminal myc-tag and linker
Test: flow cytometry, gH/gL/gO-sfGFP medium on Expi293F cells expressing PDGFRβ (negative control)

T1 sequence (P09619 33-1106): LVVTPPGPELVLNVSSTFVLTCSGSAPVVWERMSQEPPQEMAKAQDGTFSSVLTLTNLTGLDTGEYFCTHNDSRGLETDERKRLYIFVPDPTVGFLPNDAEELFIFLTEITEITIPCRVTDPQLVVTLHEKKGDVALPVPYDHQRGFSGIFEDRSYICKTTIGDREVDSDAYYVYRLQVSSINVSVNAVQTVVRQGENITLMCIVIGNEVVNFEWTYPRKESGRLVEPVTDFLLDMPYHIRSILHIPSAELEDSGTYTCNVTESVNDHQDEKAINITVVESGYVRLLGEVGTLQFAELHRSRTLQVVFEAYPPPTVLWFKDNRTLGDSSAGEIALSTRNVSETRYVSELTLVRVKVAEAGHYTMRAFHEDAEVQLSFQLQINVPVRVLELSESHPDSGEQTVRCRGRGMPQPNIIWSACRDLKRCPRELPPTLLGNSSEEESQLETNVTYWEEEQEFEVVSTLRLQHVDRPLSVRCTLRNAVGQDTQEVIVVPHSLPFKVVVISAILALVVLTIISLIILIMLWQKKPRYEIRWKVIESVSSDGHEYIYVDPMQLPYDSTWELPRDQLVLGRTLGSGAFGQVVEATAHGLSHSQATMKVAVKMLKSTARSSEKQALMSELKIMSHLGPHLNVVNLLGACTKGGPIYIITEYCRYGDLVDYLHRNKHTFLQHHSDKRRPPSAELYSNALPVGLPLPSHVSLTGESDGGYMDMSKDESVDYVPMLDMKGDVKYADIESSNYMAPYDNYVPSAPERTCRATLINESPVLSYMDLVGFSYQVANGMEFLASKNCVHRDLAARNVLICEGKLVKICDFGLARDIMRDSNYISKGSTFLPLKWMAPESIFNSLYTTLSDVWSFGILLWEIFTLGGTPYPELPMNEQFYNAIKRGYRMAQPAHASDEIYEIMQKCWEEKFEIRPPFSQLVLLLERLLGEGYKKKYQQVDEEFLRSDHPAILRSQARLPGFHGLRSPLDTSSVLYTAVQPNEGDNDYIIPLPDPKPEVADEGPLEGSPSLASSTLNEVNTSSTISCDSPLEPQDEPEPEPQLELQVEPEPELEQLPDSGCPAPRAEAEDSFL

B1: soluble HCMV glycoprotein trimer gH/gL/gO-sfGFP from strain TB40/E (other)
chain 1: […]
chain 2: VAVSVAPTAAEKVPAECPELTRRCLLGEVFQGDKYESWLRPLVNVTGRNGPLSQLIRYRPVTPEAANSVLLDDAFLDTLALLYNNPDQLRALLTLLSSDTAPRWMTVMRGYSECGDGSPAVYTCVDDLCRGYDLTRLSYGRSIFTEHVLGFELVPPSLFNVVVAIRNEATRTNRAVRLPVSTAAAPEGITLFYGLYNAVKEFCLRHQLDPPLLRHLDKYYAGLPPELKQTRVNLPAHSRYGPQAVDAR
chain 3: […]
notes: also called TB40/E trimer; CMV trimer; not shown: C-terminal FLAG tag; C-terminal superfolder GFP (Pedelacq et al. 2006)
- binding result: no binding
